# Changes are numbered by the printed parent chain.
# B1: SEQ ID NO: 336: another exemplary OTA-hydrolyzing polypeptide, amidohydrolase family; mature, processed species of SEQ ID NO: 337 (protein)
# chain: VPAPPRPAVLKAARIFDSVSGHLEEPGLVVVAGAKIQAVGSDARIPDNAQVIDLGDATLMPGFIDAHVHLSSEMSDKWYEDWYKSMVRFPAEQALYGAHYAKATLEAGITTVRDLGSSDYISLGLRNAIKAGQIPGPRMLVANYAIGSTGGHADQDPVPPQRLAPAGPIQGVCNGPDECRAAVRYQLKYGADVIKFMPSGGVLSLSDPVDTPELTQEEMNAIVSEAHAWKRKVAAHCHGDRAAKMAIAAGVDSIEHGTFLQDDTLQEMKDKHIYLVPTLSAGYWVGLKADTYPPVIAEKARAASRQMQKMFQRAVKIGVPIAMGTDAGVEPHGQNAREFSLMTTNGLPPAQALLAATAKGADLLGISDQTGTLQPGKYADIVAVGGNPLLDIKATEHPLLVMKEGVIYVGGK
# modifications: exemplary polypeptide
# B2: SEQ ID NO: 348: another exemplary OTA-hydrolyzing polypeptide, amidohydrolase family; mature, processed species of SEQ ID NO: 349 (protein)
# chain: RAHIVEPVAIKAKRVFTGVTGAVIENGVVIVDDKGRIAAISRVVPKGAKVIDLGDATLLPGFIDAHVHLSGEMSDNWYKDFRDRMLRFPAEQAHYAARNAKKTLMAGFTTVRDVGSADWQASALRNAVNAGVIVGPRILASNYAIGATGGHGDGTPFPPDRVAPDGPLKGVCNGADQCRAAVRYQIKYGADVIKFMPSGGVLSLSDPVDVPELTQDEINAIISEAHAWHRKVAAHAHGDEAARMAVKAGVDSIEHGTFLTDETLKQMKKQGTYLVATLFAGEWVGMKADNYPPAVAEKARAAAAQMQRMFARAVKIGVPIAFGTDAGVEPHGLNAHEFSLMVKNGMSPKAALLAATREAAKLLGVIDRTGTLEPGKAADMVAVRGDPLADIKATEQVIFVMKGGKIYRNEVE
# modifications: exemplary polypeptide
# B3: 29 (protein)
# chain: MDLGIKNGNVFNGKGVVGKVNIYVKDGKIVEISKENKQAKIEIDAKDMFVMPGLIDAHIHLTGIKGGSLLKTMFEKPEYRVLRASKWLEKLLLAGFTTVRDCGETISLALKRGVSEGIINGPRIIAAGKPISQTFGHGELSHDVPLEFSMALSFSEFCDGVESCIRASRKVLRDGADFIKIFATGGVLSQRDRPEHPQLSYEEISAIVNEAEKINTYVAAHAHGDKGARIAVEAGIKTLEHGTLLRDETLKLMRERNVTLTPTLTIQELIYKYGKQIGVDEWGLQKINEVRESVVNVVKKAEEYGVMIITGTDLGFETGLEEIDIGKNWMESVLLVERGGLSTISSLRASTYNSAFAIGINAGAIEVGKDADIIVIDGDPTENIRDLSKVRRVVKNGKLTVEDGKFL
# modifications: exemplary polypeptide
# B4: 74 (protein)
# chain: MTTRTRILTAFLSLLAANACAADAAPAAPHTVVLRAARMFDGASGKLVDHPQLTIVGNKIVRIAQGDKAEVPAGAEVVDLGDATLLPGFIDAHVHLSGQSSDNWYGDFFDNMMRFPAEQALYGAYYARITLEAGFTSVRDVGSTDWVALGLRNAIDAGKVPGPRMLVSNYLVGSTGGHADQDPIPPHKLPLAGPLQGVCNGPEECRAAVRYQIKYGANVIKFMPSGGVLSLSDPVDAPELSQDEMNAVIGESHAWGRKVAAHAHGDKAAKMAVAAGVDSIEHGSFIEDDTLRAMKAKNVYLVPTISAIAHVEEKIGTFPPVIAEKGRAAAAHLRQTFRHAVQIGVPIALGTDAGVGAHGSNAREFRYMVENGLTPAQALLAGTANAARLLGTFDRVGTLEAGKLADVVAVPGNPIADITVTERPLFVMKDGVVVRRDAVR
# modifications: exemplary polypeptide
# B5: 75 (protein)
# chain: B4 chain with L171A, H178Q
# modifications: exemplary polypeptide
# B6: 79 (protein)
# chain: B4 chain with L171A, A307G, V355T
# modifications: exemplary polypeptide
# B7: 78 (protein)
# chain: B4 chain with L171A, A307G, V311T
# modifications: exemplary polypeptide
# B8: 20 (protein)
# chain: MTTRFRILTAVLSLLAASACAADAAPATPHTVVLRAARMFDGASGKLVERPQLTIVGNKIVRIAQADKAEVPAGAEVIDLGDSTLLPGFIDAHVHLSGQGSDNWYGDFFDNMMRFPAEQALYGAYYARITLEAGFTSVRDLGSTDWVALGLRNAIDAGKVPGPRMLVSNYAVGSTGGHADQDPIPPHKLPLAGPLQGVCNGPEECRAAVRYQIKYGANVIKFMPSGGVLSLSDPVDAPELSQDEMNAVIGESHAWGRKVAAHAHGDKAAKMAVAAGVDSIEHGSFIEDDTLRAMKAKNVYLVPTISAIAHVEEKIGTFPPVIAEKGRAAAAHLRQTFRHAVQIGVPIALGTDAGVGAHGTNAREFRYMVENGLTPAQSLLAGTSNAARLLGTIDKVGTLEAGKLADVVAVPGNPIADITVTERPVFVMKDGVVVRRGAVR
# modifications: polypeptide 6
# B9: 30 (protein)
# chain: MELAIRNGIVFNGKEVIGKTNIYVREGKIVEVSREDHSAKMEIDAKDMFVMPGLIDAHIHLSGIKGGSLLKIMFEKPEYRVLRAAKWLEKLLLAGFTTVRDCGETVSLALKRAVNDGIIDGPKVIAAGKPITQTFGHGELSHDVPLEFSKTMSFSEFCDGMESCIHAARKVLRDGADFIKIFATGGVLSQRDTPEHPQLSYEEIRAIVNEAEKVNSYVAAHAHGDRGARIAIEAGVKTLEHGTLLKDETLKLMKEKNVTLTPTLTIQELIFKYGKQIGVDEWGLQKITSVRESIANVVRKAKEYGVTIISGTDLGFETGLEEIEMGKNWMETVLLVERGGLSPIEALRASTYNAAMAIGINAGVIEIGKDADIIIINGDPTQNVREISKITHVIKNGKLTVENKSIKG
# modifications: exemplary polypeptide
# B10: 31 (protein)
# chain: B9 chain with I119V
# modifications: exemplary polypeptide
# B11: 32 (protein)
# chain: B9 chain with G27E, V32I, V114L, T193R, S216T, S293N, E324D, Q382L
# modifications: exemplary polypeptide
# B12: 34 (protein)
# chain: B9 chain with V16I, V114L, D120G, T193R, S216T, S293N, E324D, Q382L
# modifications: exemplary polypeptide
# B13: 33 (protein)
# chain: B9 chain with V16I, R83S, V114L, D120G, T193R, S216T, S293N, E324D, Q382L, I394V
# modifications: exemplary polypeptide
# B14: 19 (protein)
# chain: MLSLLAANACVADAAPAASRTIVLRAARMFDGASGKLVEHPQLTIVGNKIVRIAQSDNAEVPASAEVIDLGDATLLPGFIDAHVHLSGQSSDNWYGDFFDNMMRFPAEQALYGAYYACITLEAGFTSVRDLGSTDWVALGLRNAIDAGKVPGPRMLVSNYAVGSTGGHADQDPIPPHRLPLAGPLQGVCNGPEECRAAVRYQIKYGANVIKFMPSGGVLSLSDPVDAPELSQDEMNAVIGESHAWGRKVAAHAHGDKAAKMAVAAGVDSIEHGSFIEDDTLRAMKAKNVYLVPTISAIAHVEEKIATFPPVIAEKGRAAAAHSRQTFRHAVQIGVPIALGTDAGVGAHGTNAREFRYMVENGLTPVQSLLAGTANAARLLGIIDRVGTLEAGKLADIVAVPGNPVADITVTERPVFVMKDGVVVRRGAVR
# modifications: polypeptide 5
# Test: Thermostability assay: residual OTA detoxification activity after 10 min incubation at 45-99° C. (T50)
# Format: physicochemical
# Conditions: 0.1 mg/mL in 20 mM Tris-HCl buffer pH 7.5
# Procedure: Stability was determined in terms of thermostability. Notwithstanding, a person having skill in the art is aware that stability towards high temperature (e.g. more than 30° C.) often correlates with stability towards other non-standard conditions such as stability towards acidic or basic pH (e.g. below pH 6.5 or above pH 7.5, respectively), towards elevated salt concentrations, organic solvents or drying.
# To determine the kinetic stability of the produced enzymes, thermostability assays were performed. To this end, purified protein samples were diluted to a protein concentration of 0.1 mg/mL in 20 mM Tris-HCl buffer pH 7.5 and aliquots were incubated in a thermocycler for 10 min at either 45, 55, 65, 75, 80, 85, 90, 95 or 99° C. After this incubation, the aliquots were stored at 4° C. until further analysis. A reference aliquot was stored at 4° C. throughout the incubation. Subsequently, all aliquots were assayed for residual OTA detoxification activity using the assay described in Example 3. Residual enzyme activities were calculated relative to the reference aliquot. The temperature range in which 50% of the initial activity was lost after the incubation (T50), in relation to the reference aliquot was determined.
row,Molecule,T50 (temperature range in which 50% of the initial activity was lost after the incubation)
1,B1,90-95 °C
2,B2,85-90 °C

# Same assay, conditions: 0.1 mg/mL protein in 20 mM Tris-HCl pH 7.5, residual OTA detoxification activity relative to 4° C. reference aliquot
row,Molecule,T50 (temperature at which 50% of the initial activity was maintained)
1,B3,>95 °C
2,B4,<63.2 °C
3,B5,74.4-77.0 °C
4,B6,70.7-72.6 °C
5,B7,68.8-70.7 °C
6,B8,<45 °C
7,B9,>95 °C
8,B10,>95 °C
9,B11,>95 °C
10,B12,>95 °C
11,B13,>95 °C
12,B14,65 °C

# Test: OTA detoxification activity assay (specific activity, fluorescence reduction ex/em 390/450 nm)
# Format: biochemical
# Conditions: pH 6.0; 37° C.; 200 ng/mL OTA; 100 mM sodium phosphate buffer
# In short: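 Recombinant enzyme preparation with 200 ng/mL OTA in 100 mM sodium phosphate, at pH 6.0 and pH 7.5, 37° C. Degradation followed as the fall in fluorescence at ex/em 390/450 nm. Specific activity taken from the initial linear slope; one unit degrades 1 μmol OTA per min at a starting OTA of […].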
row,Molecule,Specific OTA detoxification activities in U/g at pH 6.0 [U/g]
1,B1,~22
2,B2,~19
3,B8,49.73
4,B14,8.72

# Same assay, conditions: pH 7.5; 37° C.; 200 ng/mL OTA; 100 mM sodium phosphate buffer
row,Molecule,Specific OTA detoxification activities in U/g at pH 7.5
1,B1,approximately 40 U/g
2,B2,approximately 32 U/g
3,B8,100.52 U/g
4,B14,10.91 U/g

# — patent US20240352438A1, “MEANS AND METHODS FOR DETOXIFYING OCHRATOXIN A” (DSM Austria GmbH, priority 2021, published 2024)
